# Measurements reported in patent publication US20240132578A1 (published 2024).
# Residue numbers refer to the chain shown, from its start.
# B1: 1460_G14 (PGG14) (antibody, human IgG1, kappa, V domains shown)
# VH: QVLLVQSGTEVKKPGSSVKVSCQASGGAFSSYAFSWVRQAPGQGLEWMGMITPVFGETKYAPRFQGRLTLTAEESLSTTYMELRSLTSDDTAFYYCTRDRRVVPMATDNWLDPWGQGTLVTVSS
# VL: DIQLTQSPSSLSASVGDRVTVTCRASQTIHTYLNWYQQIPGKAPKLLIYGASTLQSGVPSRFSGSGSGTDFTLTINSLQPEDFATYYCQQSYSTPRTFGQGTRLDIKR
# B2: 1456_P20 (PG20) (antibody, human IgG1, kappa, V domains shown)
# VH: QVRLVQSGPEVKKPGSSVTVSCQASGGTFSSYAFTWVRQAPGQGLEWLGMVTPIFGEAKYSQRFEGRVTITADESTSTTSIELRGLTSEDTAIYYCARDRRAVPIATDNWLDPWGQGTLVTVSS
# VL: B1 VL with T20S, V21I, H30N, T31N, I39T, T53N, S56N, N76S, Y92F
# B3: 1495_C14 (PGC14) (antibody, human IgG1, lambda, V domains shown)
# VH: DGHLVQSGVEVKKTGATVKISCKVSGYSFIDYYLHWVQRAPGKGLEWVGLIDPENGEARYAEKFQGRVTIIADTSIDTGYMEMRSLKSEDTAVYFCAAGAVGADSGSWFDPWGQGTLVTVSS
# VL: SYELTQPPSVSVSPGQTASITCSGSKLGDKYVSWYQLRPGQSPILVMYENDRRPSGIPERFSGSNSGDTATLTISGTQALDEADFYCQAWETTTTTFVFFGGGTQLTVLG
# B4: 1456_P20 (PG20) (antibody, human IgG1, kappa, V domains shown)
# VH: B2 VH
# VL: B1 VL with T20S, V21I, H30N, T31N, I39T, T53N, S56N, N76S, Y92F
# B5: 1460_G14 (PGG14) (antibody, human IgG1, kappa, V domains shown)
# VH: B1 VH
# VL: B1 VL
# B6: 1495_C14 (PGC14) (antibody, human IgG1, lambda, V domains shown)
# VH: B3 VH
# VL: B3 VL
# B7: B cell culture supernatant of well 1460 G14 (source of antibody 1460_G14 (PGG14)) (antibody, V domains shown)
# VH: B1 VH
# VL: DIQLTQSPSSLSASVGDRVTVTCRASQTIHTYLNWYQQIPGKAPKLLIYGASTLQSGVPSRFSGSGSGTDFTLTINSLQPEDFATYYCQQSYSTPRTFGQGTRLDIK
# B8: B cell culture supernatant of well 1456 P20 (source of antibody 1456_P20 (PG20)) (antibody, V domains shown)
# VH: B2 VH
# VL: B7 VL with T20S, V21I, H30N, T31N, I39T, T53N, S56N, N76S, Y92F
# B9: B cell culture supernatant of well 1443 C16 (source of antibody 1443_C16 (PG16) (TCN-116)) (antibody, V domains shown)
# VH: QEQLVESGGGVVQPGGSLRLSCLASGFTFHKYGMHWVRQAPGKGLEWVALISDDGMRKYHSDSMWGRVTISRDNSKNTLYLQFSSLKVEDTAMFFCAREAGGPIWHDDVKYYDFNDGYYNYHYMDVWGKGTTVTVSS
# VL: QSALTQPASVSGSPGQTITISCNGTSSDVGGFDSVSWYQQSPGKAPKVMVFDVSHRPSGISNRFSGSKSGNTASLTISGLHIEDEGDYFCSSLTDRSHRIFGGGTKVTVL
# B10: B cell culture supernatant of well 1495 C14 (source of antibody 1495_C14 (PGC14)) (antibody, V domains shown)
# VH: B3 VH
# VL: SYELTQPPSVSVSPGQTASITCSGSKLGDKYVSWYQLRPGQSPILVMYENDRRPSGIPERFSGSNSGDTATLTISGTQALDEADFYCQAWETTTTTFVFFGGGTQLTVL
# B11: B cell culture supernatant of well 1496 C9 (source of antibody 1496_C09 (PG9) (TCN-109)) (antibody, V domains shown)
# VH: QRLVESGGGVVQPGSSLRLSCAASGFDFSRQGMHWVRQAPGQGLEWVAFIKYDGSEKYHADSVWGRLSISRDNSKDTLYLQMNSLRVEDTATYFCVREAGGPDYRNGYNYYDFYDGYYNYHYMDVWGKGTTVTVSS
# VL: QSALTQPASVSGSPGQSITISCNGTSNDVGGYESVSWYQQHPGKAPKVVIYDVSKRPSGVSNRFSGSKSGNTASLTISGLQAEDEGDYYCKSLTSTRRRVFGTGTKLTVL
# Target: T1, recombinant gp41HxB2 (HIV-1 clone HxB2, UniProt P04578 541-682)
# T1 construct: domain: gp41
# Test: ELISA on recombinant gp41
row,Binder,binding result
1,B1,no binding
2,B2,no binding
3,B3,no binding

# Target: HIV-1 93UG077 Env (clade A pseudovirus) (HIV-1)
# Test: cell-based or functional assay
row,Binder,"IC50 (µg/mL), pseudovirus neutralization [µg/mL]"
1,B4,> 50
2,B5,> 50
3,B6,> 50

# Target: HIV-1 92BR020 Env (clade B pseudovirus) (HIV-1)
# Test: cell-based or functional assay
row,Binder,"IC50 (µg/mL), pseudovirus neutralization [µg/mL]"
1,B4,> 50
2,B5,> 50
3,B6,0.64

# Target: HIV-1 APV-13 Env (clade B pseudovirus) (HIV-1)
# Test: cell-based or functional assay
row,Binder,"IC50 (µg/mL), pseudovirus neutralization [µg/mL]"
1,B4,> 50
2,B5,> 50
3,B6,> 50

# Target: HIV-1 JRCSF Env (clade B pseudovirus) (HIV-1, UniProt P20871 32-848)
# Test: cell-based or functional assay
row,Binder,"IC50 (µg/mL), pseudovirus neutralization [µg/mL]"
1,B4,> 50
2,B5,> 50
3,B6,> 50

# Target: HIV-1 APV-17 Env (clade B pseudovirus) (HIV-1)
# Test: cell-based or functional assay
row,Binder,"IC50 (µg/mL), pseudovirus neutralization [µg/mL]"
1,B4,> 50
2,B5,> 50
3,B6,> 50

# Target: HIV-1 APV-6 Env (clade B pseudovirus) (HIV-1)
# Test: cell-based or functional assay
row,Binder,"IC50 (µg/mL), pseudovirus neutralization [µg/mL]"
1,B4,25.8
2,B5,> 50
3,B6,7.41

# Target: HIV-1 93IN905 Env (clade C pseudovirus) (HIV-1)
# Test: cell-based or functional assay
row,Binder,"IC50 (µg/mL), pseudovirus neutralization [µg/mL]"
1,B4,> 50
2,B5,> 50
3,B6,> 50

# Target: HIV-1 IAVI-C18 Env (clade C pseudovirus) (HIV-1)
# Test: cell-based or functional assay
row,Binder,"IC50 (µg/mL), pseudovirus neutralization [µg/mL]"
1,B4,> 50
2,B5,> 50
3,B6,> 50

# Target: HIV-1 IAVI-C22 Env (clade C pseudovirus) (HIV-1)
# Test: cell-based or functional assay
row,Binder,"IC50 (µg/mL), pseudovirus neutralization [µg/mL]"
1,B4,> 50
2,B5,> 50
3,B6,> 50

# Target: HIV-1 IAVI-C3 Env (clade C pseudovirus) (HIV-1)
# Test: cell-based or functional assay
row,Binder,"IC50 (µg/mL), pseudovirus neutralization [µg/mL]"
1,B4,> 50
2,B5,> 50
3,B6,9.5

# Target: HIV-1 92UG024 Env (clade D pseudovirus) (HIV-1)
# Test: cell-based or functional assay
row,Binder,"IC50 (µg/mL), pseudovirus neutralization [µg/mL]"
1,B4,> 50
2,B5,> 50
3,B6,> 50

# Target: HIV-1 92UG005 Env (clade D pseudovirus) (HIV-1)
# Test: cell-based or functional assay
row,Binder,"IC50 (µg/mL), pseudovirus neutralization [µg/mL]"
1,B4,> 50
2,B5,> 50
3,B6,> 50

# Target: HIV-1 92TH021 Env (CRF01_AE pseudovirus) (HIV-1)
# Test: cell-based or functional assay
row,Binder,"IC50 (µg/mL), pseudovirus neutralization [µg/mL]"
1,B4,> 50
2,B5,> 50
3,B6,> 50

# Target: HIV-1 CMU02 Env (CRF01_AE pseudovirus) (HIV-1)
# Test: cell-based or functional assay
row,Binder,"IC50 (µg/mL), pseudovirus neutralization [µg/mL]"
1,B4,> 50
2,B5,> 50
3,B6,> 50

# Target: aMLV envelope (negative control pseudovirus)
# Test: cell-based or functional assay
row,Binder,"IC50 (µg/mL), pseudovirus neutralization [µg/mL]"
1,B4,> 50
2,B5,> 50
3,B6,> 50

# Target: HIV-1 94UG103 Env (clade A pseudovirus) (HIV-1)
# Test: cell-based or functional assay
row,Binder,"IC50 (µg/mL), pseudovirus neutralization [µg/mL]"
1,B4,> 50
2,B5,> 50
3,B6,> 50

# Target: HIV-1 92RW020 Env (clade A pseudovirus) (HIV-1)
# Test: cell-based or functional assay
row,Binder,"IC50 (µg/mL), pseudovirus neutralization [µg/mL]"
1,B4,50
2,B5,> 50
3,B6,28.6

# Target: T2, Recombinant gp41 generated with sequences derived from HxB2 clone of HIV-1, expressed in Pichia pastoris (HIV-1 clone HxB2, UniProt P04578 541-682)
# T2 construct: domain: gp41; also called gp41HxB2
# Test: ELISA, B cell culture supernatant on directly immobilised recombinant gp41
row,Binder,binding result
1,B7,no binding
2,B8,no binding
3,B9,no binding
4,B10,no binding
5,B11,no binding
